Experimental findings from article PMC11445476, “CHC22 clathrin recruitment to the early secretory pathway requires two-site interaction with SNX5 and p115” (The EMBO Journal, 2024) are described below.

B2: His-SUMO-tagged CHC22 terminal domain, wild-type (domain or fragment, human, UniProt P53675 1-364, looked up)
chain: MAQILPVRFQEHFQLQNLGINPANIGFSTLTMESDKFICIREKVGEQAQVTIIDMSDPMAPIRRPISAESAIMNPASKVIALKAGKTLQIFNIEMKSKMKAHTMAEEVIFWKWVSVNTVALVTETAVYHWSMEGDSQPMKMFDRHTSLVGCQVIHYRTDEYQKWLLLVGISAQQNRVVGAMQLYSVDRKVSQPIEGHAAAFAEFKMEGNAKPATLFCFAVRNPTGGKLHIIEVGQPAAGNQPFVKKAVDVFFPPEAQNDFPVAMQIGAKHGVIYLITKYGYLHLYDLESGVCICMNRISADTIFVTAPHKPTSGIIGVNKKGQVLSVCVEEDNIVNYATNVLQNPDLGLRLAVRSNLAGAEKLF
notes: CHC22 clathrin heavy chain, N-terminal domain (TD), residues 1-364; also called CHC22 TD; His-bdSUMO-CHC22 TD; source: E. coli Rosetta 2 pLysS, purified (HisTrap, size exclusion); not shown: His, N-terminal, kept; bdSUMO, N-terminal, kept
B3: full-length GST-SNX5 wild-type (natural protein, human, UniProt Q9Y5X3 1-404, looked up)
chain: MAAVPELLQQQEEDRSKLRSVSVDLNVDPSLQIDIPDALSERDKVKFTVHTKTTLPTFQSPEFSVTRQHEDFVWLHDTLIETTDYAGLIIPPAPTKPDFDGPREKMQKLGEGEGSMTKEEFAKMKQELEAEYLAVFKKTVSSHEVFLQRLSSHPVLSKDRNFHVFLEYDQDLSVRRKNTKEMFGGFFKSVVKSADEVLFTGVKEVDDFFEQEKNFLINYYNRIKDSCVKADKMTRSHKNVADDYIHTAACLHSLALEEPTVIKKYLLKVAELFEKLRKVEGRVSSDEDLKLTELLRYYMLNIEAAKDLLYRRTKALIDYENSNKALDKARLKSKDVKLAEAHQQECCQKFEQLSESAKEELINFKRKRVAAFRKNLIEMSELEIKHARNNVSLLQSCIDLFKNN
notes: sorting nexin 5, human, full-length, residues 1-404, amplified from human cDNA of the GM25256 cell line, in pGEX3; also called GST-SNX5 WT; WT; source: E. coli Rosetta 2 pLysS, purified (GSTrap, size exclusion); not shown: GST, N-terminal, kept

What all share (conditions): both partners purified
Experiment [1] deals with B3.
In experiment [2] the target is T1, full-length GST-SNX5 phosphomimetic S226E mutant (human, UniProt Q9Y5X3 1-404, S226E).
T1 construct: sorting nexin 5, human, full-length (1-404) with phosphomimetic point mutation S226E in the BAR domain; The making of the mutant is not described; also called GST-SNX5 S226E; not shown: GST, N-terminal, kept
T1 sequence (looked up): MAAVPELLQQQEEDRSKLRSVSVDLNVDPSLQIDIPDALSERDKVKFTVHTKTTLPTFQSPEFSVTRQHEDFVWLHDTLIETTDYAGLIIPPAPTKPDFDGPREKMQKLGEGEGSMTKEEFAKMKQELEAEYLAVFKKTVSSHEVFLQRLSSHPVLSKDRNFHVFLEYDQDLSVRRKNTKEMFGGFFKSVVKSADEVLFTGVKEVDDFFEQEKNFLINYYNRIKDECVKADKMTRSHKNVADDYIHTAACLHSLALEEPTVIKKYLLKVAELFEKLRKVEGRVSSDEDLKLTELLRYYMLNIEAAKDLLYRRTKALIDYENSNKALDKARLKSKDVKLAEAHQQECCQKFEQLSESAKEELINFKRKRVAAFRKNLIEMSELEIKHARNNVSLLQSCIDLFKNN

Experiment [3] addresses T2, full-length GST-p115 (UniProt O60763 1-962).
T2 construct: p115, full-length, residues 1-962, amplified from pIY119 into pGEX3; not shown: GST, N-terminal, kept
T2 sequence (looked up): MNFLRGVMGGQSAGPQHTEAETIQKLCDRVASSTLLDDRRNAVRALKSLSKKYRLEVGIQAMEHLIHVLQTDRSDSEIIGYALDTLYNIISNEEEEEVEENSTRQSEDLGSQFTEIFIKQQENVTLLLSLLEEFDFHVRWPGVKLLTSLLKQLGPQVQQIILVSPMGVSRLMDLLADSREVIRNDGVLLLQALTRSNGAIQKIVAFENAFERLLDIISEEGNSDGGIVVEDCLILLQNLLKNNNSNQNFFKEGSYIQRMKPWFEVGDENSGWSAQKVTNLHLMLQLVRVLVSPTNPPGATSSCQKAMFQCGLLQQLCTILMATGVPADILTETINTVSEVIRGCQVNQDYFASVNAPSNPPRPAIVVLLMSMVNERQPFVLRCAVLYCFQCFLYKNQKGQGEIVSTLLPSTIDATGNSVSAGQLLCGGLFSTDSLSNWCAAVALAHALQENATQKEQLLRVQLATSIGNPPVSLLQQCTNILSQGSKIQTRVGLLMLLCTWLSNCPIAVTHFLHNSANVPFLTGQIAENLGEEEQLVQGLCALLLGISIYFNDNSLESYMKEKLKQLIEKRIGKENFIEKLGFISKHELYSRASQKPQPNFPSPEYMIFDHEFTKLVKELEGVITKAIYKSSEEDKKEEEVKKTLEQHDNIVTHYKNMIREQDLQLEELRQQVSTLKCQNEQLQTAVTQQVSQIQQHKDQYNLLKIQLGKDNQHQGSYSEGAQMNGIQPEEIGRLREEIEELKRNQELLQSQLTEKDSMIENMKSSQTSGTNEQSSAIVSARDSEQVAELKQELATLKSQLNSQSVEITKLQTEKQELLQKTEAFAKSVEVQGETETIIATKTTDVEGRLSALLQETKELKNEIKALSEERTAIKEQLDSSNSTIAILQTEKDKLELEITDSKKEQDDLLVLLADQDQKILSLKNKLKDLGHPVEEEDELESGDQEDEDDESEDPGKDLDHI
The experiment can be described thus: pull-down; GST, GST-GGA2-HE or GST-p115 on glutathione beads, 12.5 µg purified His-bdSUMO-CHC22 TD (WT or Chim) in 250 µl CHC22 PD buffer for 45 min, immunoblot. Background: Immunoblotting shows a protein as a band on a membrane.

The target in experiment [4] is T3, full-length His-p115 (UniProt O60763 1-962).
T3 construct: p115, full-length, encoded by plasmid pIY119 (gift, Munro lab); not shown: 6xHis, N-terminal, kept
T3 sequence (looked up): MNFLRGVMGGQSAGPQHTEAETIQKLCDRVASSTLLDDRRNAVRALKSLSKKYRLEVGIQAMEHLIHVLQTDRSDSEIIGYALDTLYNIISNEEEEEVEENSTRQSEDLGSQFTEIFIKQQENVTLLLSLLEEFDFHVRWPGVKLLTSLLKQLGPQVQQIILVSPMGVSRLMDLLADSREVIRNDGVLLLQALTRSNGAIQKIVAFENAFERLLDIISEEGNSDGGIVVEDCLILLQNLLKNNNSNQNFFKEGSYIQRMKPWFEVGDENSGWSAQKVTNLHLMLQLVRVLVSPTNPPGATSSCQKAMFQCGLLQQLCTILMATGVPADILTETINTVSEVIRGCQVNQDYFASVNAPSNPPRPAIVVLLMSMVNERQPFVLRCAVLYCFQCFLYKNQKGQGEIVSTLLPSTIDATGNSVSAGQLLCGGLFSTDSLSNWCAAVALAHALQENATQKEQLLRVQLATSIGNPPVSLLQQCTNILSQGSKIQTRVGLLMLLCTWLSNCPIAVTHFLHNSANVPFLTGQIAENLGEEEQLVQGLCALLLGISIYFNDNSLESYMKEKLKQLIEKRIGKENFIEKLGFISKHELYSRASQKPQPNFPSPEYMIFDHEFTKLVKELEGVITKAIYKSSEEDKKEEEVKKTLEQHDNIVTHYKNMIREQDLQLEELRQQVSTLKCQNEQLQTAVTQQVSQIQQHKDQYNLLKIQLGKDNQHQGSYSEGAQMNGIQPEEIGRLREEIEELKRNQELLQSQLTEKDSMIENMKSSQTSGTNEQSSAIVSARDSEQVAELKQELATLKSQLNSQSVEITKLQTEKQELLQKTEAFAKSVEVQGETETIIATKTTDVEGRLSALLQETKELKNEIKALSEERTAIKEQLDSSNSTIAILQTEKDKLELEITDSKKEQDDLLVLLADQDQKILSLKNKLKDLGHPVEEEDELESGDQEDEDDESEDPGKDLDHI
Kind of experiment: pull-down; His-tagged bait on Ni-NTA HisPur beads, 15 µg purified GST-only or GST-SNX5 as prey in 250 µL His PD buffer for 45 min, immunoblot.

Experiment [5] addresses T4, His-tagged CHC22 Hub (human, UniProt P53675 1074-1640).
T4 construct: CHC22 clathrin heavy chain, Hub domain (C-terminal third), residues 1074-1640; also called His-CHC22-Hub; not shown: 6xHis, N-terminal, kept
T4 sequence (looked up): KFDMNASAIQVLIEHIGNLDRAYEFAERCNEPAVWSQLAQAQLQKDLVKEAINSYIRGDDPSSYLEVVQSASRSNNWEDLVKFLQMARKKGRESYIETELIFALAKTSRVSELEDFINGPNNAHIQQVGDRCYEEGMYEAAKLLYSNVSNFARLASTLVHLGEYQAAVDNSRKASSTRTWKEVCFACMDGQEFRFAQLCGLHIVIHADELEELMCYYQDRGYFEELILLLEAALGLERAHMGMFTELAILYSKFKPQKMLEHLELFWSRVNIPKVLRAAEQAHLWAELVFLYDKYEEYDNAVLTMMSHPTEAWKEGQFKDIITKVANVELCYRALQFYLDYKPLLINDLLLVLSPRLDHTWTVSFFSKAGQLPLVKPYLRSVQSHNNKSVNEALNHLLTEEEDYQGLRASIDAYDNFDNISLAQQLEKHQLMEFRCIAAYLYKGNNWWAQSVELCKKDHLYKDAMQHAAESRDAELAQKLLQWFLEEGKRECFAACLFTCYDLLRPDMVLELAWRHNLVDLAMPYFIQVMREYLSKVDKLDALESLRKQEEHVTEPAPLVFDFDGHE
The description is as above.

In experiment [6] the target is T5, full-length His-SNX1 (UniProt Q13596 1-522).
T5 construct: SNX1, full-length, residues 1-522, sub-cloned from a plasmid of the Cullen lab into pET15b; also called recombinant SNX1; source: E. coli BL21 (DE3), purified (HisTrap, size exclusion); not shown: 6xHis, N-terminal, kept
T5 sequence (Q13596 whole entry, the tested form may be a part): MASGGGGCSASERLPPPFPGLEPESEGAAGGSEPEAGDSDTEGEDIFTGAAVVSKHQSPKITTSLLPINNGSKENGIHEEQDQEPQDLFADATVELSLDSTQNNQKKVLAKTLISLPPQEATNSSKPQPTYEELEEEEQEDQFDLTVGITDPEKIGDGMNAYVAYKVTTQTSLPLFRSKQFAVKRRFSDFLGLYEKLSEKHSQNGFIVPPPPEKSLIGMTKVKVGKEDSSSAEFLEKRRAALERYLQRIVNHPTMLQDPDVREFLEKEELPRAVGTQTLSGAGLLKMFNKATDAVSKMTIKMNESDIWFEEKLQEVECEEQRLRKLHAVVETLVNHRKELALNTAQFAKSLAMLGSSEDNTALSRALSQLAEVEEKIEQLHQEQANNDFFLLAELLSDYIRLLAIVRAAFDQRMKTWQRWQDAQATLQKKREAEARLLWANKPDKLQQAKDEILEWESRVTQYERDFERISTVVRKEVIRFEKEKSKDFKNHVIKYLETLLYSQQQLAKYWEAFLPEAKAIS

Experiment [7] has as its target T6, His-SUMO-tagged CHC17 terminal domain (human, UniProt Q00610 1-364).
T6 construct: CHC17 clathrin heavy chain, N-terminal domain (TD), residues 1-364; also called CHC17 TD; His-bdSUMO-CHC17 TD; source: E. coli Rosetta 2 pLysS, purified (HisTrap, size exclusion); not shown: His, N-terminal, kept; bdSUMO, N-terminal, kept
T6 sequence (looked up): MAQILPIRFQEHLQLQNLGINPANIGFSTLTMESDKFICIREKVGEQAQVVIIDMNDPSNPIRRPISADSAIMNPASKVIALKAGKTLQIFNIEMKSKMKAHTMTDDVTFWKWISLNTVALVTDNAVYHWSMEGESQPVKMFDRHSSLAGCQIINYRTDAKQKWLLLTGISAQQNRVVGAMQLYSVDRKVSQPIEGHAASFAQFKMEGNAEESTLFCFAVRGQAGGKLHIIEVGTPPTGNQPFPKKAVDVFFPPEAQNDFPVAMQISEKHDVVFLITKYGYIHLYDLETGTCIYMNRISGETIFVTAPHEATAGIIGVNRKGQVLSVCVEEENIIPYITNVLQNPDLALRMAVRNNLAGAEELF
The experiment can be described thus: pull-down; GST, GST-GGA2-HE or GST-p115 on glutathione beads, 12.5 µg purified His-bdSUMO-CHC17 TD in 250 µl CHC17 PD buffer for 60 min, immunoblot.

In experiment [8] the target is B2. The experiment can be described thus: pull-down; GST, GST-GGA2-HE or GST-p115 on glutathione beads, 12.5 µg purified His-bdSUMO-CHC22 TD (WT or Chim) in 250 µl CHC22 PD buffer for 45 min, immunoblot.

B1: His-tagged CHC22 TxD (domain or fragment, human, UniProt P53675 1521-1640, looked up)
chain: WAQSVELCKKDHLYKDAMQHAAESRDAELAQKLLQWFLEEGKRECFAACLFTCYDLLRPDMVLELAWRHNLVDLAMPYFIQVMREYLSKVDKLDALESLRKQEEHVTEPAPLVFDFDGHE
notes: CHC22 clathrin heavy chain, trimerization domain; methods give residues 1521-1640, the results 1520-1640; Limits told in two ways (1521-1640 in methods, 1520-1640 in results); also called His-22TxD; His-CHC22 TxD; source: E. coli BL21 (DE3), purified (HisTrap, size exclusion); not shown: 6xHis, N-terminal, kept
On to B1, for which the binding result in experiment [1] and in experiment [2] was “binds” in each case.
On to B2, for which, in experiment [3], the binding result is on record as “binds”.
Regarding B3, the binding result in experiment [4], in experiment [5] and in experiment [6] was “binds” each time.

B4: GST-GGA2-HE (domain or fragment, UniProt Q9UJY4 316-613, looked up)
chain: GRVTFGNRVTSSLGDIPVSRVFQNPAGCMKTCPLIDLEVDNGPAQMGTVVPSLLHQDLAALGISDAPVTGMVSGQNCCEEKRNPSSSTLPGGGVQNPSADRNLLDLLSAQPAPCPLNYVSQKSVPKEVPPGTKSSPGWSWEAGPLAPSPSSQNTPLAQVFVPLESVKPSSLPPLIVYDRNGFRILLHFSQTGAPGHPEVQVLLLTMMSTAPQPVWDIMFQVAVPKSMRVKLQPASSSKLPAFSPLMPPAVISQMLLLDNPHKEPIRLRYKLTFNQGGQPFSEVGEVKDFPDLAVLGAA
notes: GGA2, hinge-GAE (hinge-ear) fragment, residues 316-613; also called GGA2-hinge-GAE; hinge-ear fragment of GGA2; not shown: GST, N-terminal, kept
Consider B4, for which the binding result in experiment [7] and in experiment [8] was “binds” throughout.
